Measurements taken from paper PMC7719794.

Target: chicken CD8αα homodimer (chicken)
Assay: crystal structure; sitting-drop vapour diffusion at 291 K, 10 mg/ml; cCD8αα and pMHC-I mixed at a 2:1 molar ratio at 277 K overnight; three crystals: pBF2*1501, cCD8αα/pBF2*1501, cCD8αα/pBF2*0401; two complexes (A and B) in the asymmetric unit of each co-crystal

chicken CD8αα homodimer (receptor) showed a stoichiometry N of 2.
